± gives the uncertainty stated by the source.
B1: Lysine-specific demethylase 5C, residues 319 to 373; numbered along this chain, P41229 (parent)
chain: AQFIESYVCRMCSRGDEDDKLLLCDGCDDNYHIFCLLPPLPEIPKGVWRCPKCVM

Variants of: B1
Assay: abundance fitness (aPCA) (normalised: wild type 0, dead -1); higher = more abundant; growth selection in yeast, the domain comes from the species named
Conditions: Homo sapiens
With M11Q the abundance fitness was 0.045 ± 0.14. In the case of F3K, the abundance fitness is reported as 0.016 ± 0.14. A1V gave an abundance fitness of -0.297 ± 0.15. G15F gave an abundance fitness of -0.008 ± 0.1. L23G showed an abundance fitness of -0.086 ± 0.093. D25P gave an abundance fitness of -0.355 ± 0.1. With M55P the abundance fitness was 0.446 ± 0.44. In the case of P51K, the abundance fitness is reported as 0.131 ± 0.19. D29N gave an abundance fitness of 0.274 ± 0.24. Variant D19Y has an abundance fitness of -0.335 ± 0.13. In the case of L21R, the abundance fitness is reported as -0.221 ± 0.11. In the case of L37F, the abundance fitness is reported as -0.193 ± 0.17. For C50P, the abundance fitness was -0.987 ± 0.46. For P39K, the abundance fitness was 0.148 ± 0.17. F3E gave an abundance fitness of -0.114 ± 0.2. For V8S, the abundance fitness was 0.007 ± 0.1. Work on W48R yielded an abundance fitness of -0.611 ± 0.13. Work on L36E yielded an abundance fitness of -0.551 ± 0.21. With Y31S the abundance fitness was -0.93 ± 0.19. In the case of Y31T, the abundance fitness is reported as -0.678 ± 0.16. M55G showed an abundance fitness of -0.61 ± 0.24. V8D showed an abundance fitness of -0.315 ± 0.19. L21M gave an abundance fitness of -0.167 ± 0.14. L22C gave an abundance fitness of -0.052 ± 0.13. Work on D25M yielded an abundance fitness of -0.419 ± 0.14. Variant P51I has an abundance fitness of -0.175 ± 0.19. Variant Q2A has an abundance fitness of -0.273 ± 0.43. With F34T the abundance fitness was 0.039 ± 0.14. G15N gave an abundance fitness of -0.231 ± 0.099. G46Y showed an abundance fitness of -0.366 ± 0.18. I4F showed an abundance fitness of -0.098 ± 0.16. For C27T, the abundance fitness was -0.694 ± 0.18. G15C showed an abundance fitness of 0.167 ± 0.12. In the case of K52R, the abundance fitness is reported as 0.007 ± 0.096. Variant K45N has an abundance fitness of -0.022 ± 0.15. Work on C50Q yielded an abundance fitness of -0.71 ± 0.22. With W48D the abundance fitness was -0.686 ± 0.46. F3N showed an abundance fitness of 0.182 ± 0.17. Work on M11V yielded an abundance fitness of -0.135 ± 0.12. Work on G26H yielded an abundance fitness of 0.092 ± 0.17. P38G showed an abundance fitness of -0.454 ± 0.13. V8A gave an abundance fitness of -0.092 ± 0.097. In the case of I4H, the abundance fitness is reported as -0.111 ± 0.17. For C27V, the abundance fitness was -0.752 ± 0.15. K20N showed an abundance fitness of -0.327 ± 0.23. D19H gave an abundance fitness of -0.032 ± 0.098. Variant Y7D has an abundance fitness of 0.173 ± 0.48. In the case of D16Y, the abundance fitness is reported as -0.115 ± 0.19. For V47G, the abundance fitness was -0.061 ± 0.091. For L21D, the abundance fitness was -0.87 ± 0.26. H32V gave an abundance fitness of -0.723 ± 0.11. Work on P41V yielded an abundance fitness of -0.051 ± 0.13. P39Q showed an abundance fitness of -0.276 ± 0.16. For L23R, the abundance fitness was 0.166 ± 0.065. Variant C27G has an abundance fitness of -0.825 ± 0.13. In the case of A1E, the abundance fitness is reported as -0.143 ± 0.26. Variant M55L has an abundance fitness of -0.154 ± 0.18. In the case of K45H, the abundance fitness is reported as -0.048 ± 0.17. P38Q showed an abundance fitness of 0.178 ± 0.18. For D25V, the abundance fitness was -0.009 ± 0.094. C12S showed an abundance fitness of -0.855 ± 0.13. G46Q gave an abundance fitness of -0.093 ± 0.29. Y7A gave an abundance fitness of 0.18 ± 0.13. For C9H, the abundance fitness was -0.798 ± 0.28. For P51S, the abundance fitness was 0.138 ± 0.11. In the case of V47R, the abundance fitness is reported as 0.044 ± 0.087. N30Q gave an abundance fitness of 0.157 ± 0.11. In the case of L21A, the abundance fitness is reported as -0.426 ± 0.1. D19V gave an abundance fitness of -0.102 ± 0.086. Work on D29A yielded an abundance fitness of 0.06 ± 0.43. Variant L37G has an abundance fitness of -0.134 ± 0.14. Work on D16A yielded an abundance fitness of -0.063 ± 0.12. V8I showed an abundance fitness of -0.241 ± 0.14. For D18W, the abundance fitness was 0.035 ± 0.1. C35E gave an abundance fitness of -0.794 ± 0.26. Variant P38D has an abundance fitness of -0.35 ± 0.2. With D28S the abundance fitness was 0.148 ± 0.14. E17P showed an abundance fitness of -0.1 ± 0.14. For L21T, the abundance fitness was -0.164 ± 0.09. With Q2F the abundance fitness was -0.531 ± 0.26. Variant R49I has an abundance fitness of -0.176 ± 0.2. Work on G15I yielded an abundance fitness of -0.065 ± 0.1. S13V gave an abundance fitness of -0.121 ± 0.1. P39S showed an abundance fitness of 0.078 ± 0.1. For H32Y, the abundance fitness was -0.972 ± 0.25. For M55S, the abundance fitness was 0.295 ± 0.24. For C27A, the abundance fitness was -0.921 ± 0.33. In the case of V54C, the abundance fitness is reported as -0.097 ± 0.25. L22W gave an abundance fitness of -0.838 ± 0.16. Variant P51H has an abundance fitness of -0.015 ± 0.17. Y31P gave an abundance fitness of -0.776 ± 0.24. Work on D28E yielded an abundance fitness of -0.102 ± 0.32. In the case of Y31I, the abundance fitness is reported as -0.261 ± 0.27. C53T gave an abundance fitness of -0.939 ± 0.29. S13L showed an abundance fitness of 0.044 ± 0.095. I4Q showed an abundance fitness of 0.451 ± 0.2. Variant D16K has an abundance fitness of -0.265 ± 0.15. Variant I43Y has an abundance fitness of -0.333 ± 0.16. P39V gave an abundance fitness of -0.129 ± 0.11. Variant L22V has an abundance fitness of -0.163 ± 0.11. Variant G26F has an abundance fitness of -0.047 ± 0.16. In the case of L37Y, the abundance fitness is reported as -0.328 ± 0.15. In the case of C12Y, the abundance fitness is reported as -0.87 ± 0.25. D25F gave an abundance fitness of -0.394 ± 0.12. With G26A the abundance fitness was 0.161 ± 0.13. L36I showed an abundance fitness of -0.134 ± 0.18. For E42Y, the abundance fitness was -0.125 ± 0.16. For C50T, the abundance fitness was -1.05 ± 0.39. Work on G15L yielded an abundance fitness of -0.113 ± 0.064. Variant D19S has an abundance fitness of -0.089 ± 0.072. For C27Q, the abundance fitness was -0.522 ± 0.2. In the case of R49T, the abundance fitness is reported as -0.055 ± 0.16. With C35A the abundance fitness was -0.83 ± 0.15. In the case of K52L, the abundance fitness is reported as -0.282 ± 0.12. Work on F34G yielded an abundance fitness of 0.046 ± 0.11. C27M gave an abundance fitness of -0.507 ± 0.19. Work on K52H yielded an abundance fitness of -0.184 ± 0.2. With W48H the abundance fitness was -0.811 ± 0.37. Variant E42H has an abundance fitness of -0.44 ± 0.19. Work on D16I yielded an abundance fitness of 0.089 ± 0.19. K20P gave an abundance fitness of -0.043 ± 0.12. In the case of F34Y, the abundance fitness is reported as 0.191 ± 0.16. Variant E17S has an abundance fitness of -0.052 ± 0.1. G26S showed an abundance fitness of -0.159 ± 0.11. K45F gave an abundance fitness of -0.491 ± 0.21. D19K showed an abundance fitness of 0.064 ± 0.094. In the case of G26T, the abundance fitness is reported as 0.004 ± 0.16. For L22A, the abundance fitness was -0.243 ± 0.098. C50I showed an abundance fitness of -0.757 ± 0.35. Variant I4L has an abundance fitness of -0.338 ± 0.11. In the case of D19Q, the abundance fitness is reported as -0.014 ± 0.13. S13Y gave an abundance fitness of -0.149 ± 0.15. Variant P51V has an abundance fitness of -0.153 ± 0.13. Variant L22Y has an abundance fitness of -1.07 ± 0.45. Work on D18R yielded an abundance fitness of 0.087 ± 0.083. K52P showed an abundance fitness of 0.049 ± 0.17. Variant C50E has an abundance fitness of -0.992 ± 0.24. For E5R, the abundance fitness was 0.046 ± 0.12. In the case of S6H, the abundance fitness is reported as -0.294 ± 0.23. K20Y gave an abundance fitness of -0.035 ± 0.22. For S13H, the abundance fitness was -0.239 ± 0.2. L23W showed an abundance fitness of -0.224 ± 0.12. C35P showed an abundance fitness of -0.638 ± 0.29. Variant V47K has an abundance fitness of 0.154 ± 0.16. With W48M the abundance fitness was -0.671 ± 0.17. G15E showed an abundance fitness of 0.049 ± 0.12. Work on C53L yielded an abundance fitness of -0.909 ± 0.2. Work on C27L yielded an abundance fitness of -0.842 ± 0.16. C35K gave an abundance fitness of -0.947 ± 0.34. With C9W the abundance fitness was -0.937 ± 0.28. For E5L, the abundance fitness was -0.378 ± 0.12. Work on A1L yielded an abundance fitness of -0.331 ± 0.4. In the case of L22H, the abundance fitness is reported as -0.612 ± 0.23. In the case of L37R, the abundance fitness is reported as 0.092 ± 0.088. For G15K, the abundance fitness was 0.086 ± 0.089. P51F gave an abundance fitness of -0.048 ± 0.2. In the case of P41M, the abundance fitness is reported as -0.55 ± 0.24. In the case of F34K, the abundance fitness is reported as 0.28 ± 0.13. Work on C53R yielded an abundance fitness of -1 ± 0.17. For V54Y, the abundance fitness was -0.064 ± 0.26. In the case of I43D, the abundance fitness is reported as -0.462 ± 0.36. Variant L36C has an abundance fitness of 0.232 ± 0.13. Work on C12H yielded an abundance fitness of -0.825 ± 0.26. Variant H32T has an abundance fitness of -0.898 ± 0.21. S6I showed an abundance fitness of -0.445 ± 0.2. In the case of I4V, the abundance fitness is reported as -0.019 ± 0.11. In the case of P38A, the abundance fitness is reported as -0.042 ± 0.12.

Reference: the Human Domainome abundance scans (Beltran et al. 2025)
